Data published in patent publication US20130164256A1 (AbbVie / Abbott, published 2013).
Residue numbers refer to the chain shown, from its start.

B1: AE11-5 AM4 (antibody, V domains shown)
VH: EVQLVQSGAEVKKPGSSVKVSCKASGGTFSWYAISWVRQAPGQGLEWMGGITPILGSPIYAQKFQGRVTITADESTSTVYMELSSLRSEDTAVYYCARGVYYDPKRADYWGQGTLVTVSS
VL: EIVLTQSPDFQSVTPKEKVTITCRASQRIGSSLHWYQQKPDQSPKLLIKHASQSVSGVPSRFSGSGSGTDFTLTINSLEAEDAATYYCHQSRSSPPPTFGQGTKVEIK
notes: Full length IgG converted from scFv clone J703M1S3#30; Human IgG1 (hCg1,z,non-a,mut(234,235)) with human kappa; also called J703M1S3#30
B2: AE11-5 AM2 (antibody, V domains shown)
VH: B1 VH with S57A, P58A, I59N
VL: EIVLTQSPDFQSVTPKEKVTITCRASQSIGSTLHWYQQKPDQSPKLLIKHASQSNSGVPSRFSGSGSGTDFTLTINSLEAEDAATYYCHQSSSLPPPTFGQGTKVEI
notes: Full length IgG converted from scFv clone J703M1S3#13; Human IgG1 (hCg1,z,non-a,mut(234,235)) with human kappa; also called J703M1S3#13
B3: AE11-5 AM5 (antibody, V domains shown)
VH: B1 VH with A33P, S57A, P58G, P104F
VL: B1 VL with R28S, V55T, R92S, P97S
notes: Full length IgG converted from scFv clone J703M1S3#33; Human IgG1 (hCg1,z,non-a,mut(234,235)) with human kappa; also called J703M1S3#33
B4: AE11-5 AM9 (antibody, V domains shown)
VH: B1 VH with V100I
VL: B1 VL with R28S, A51V, V55L, S91R, R92S, P96S
notes: Full length IgG converted from scFv clone J703M1S3#69; Human IgG1 (hCg1,z,non-a,mut(234,235)) with human kappa; also called J703M1S3#69
B5: AE11-5 AM1 (antibody, V domains shown)
VH: B1 VH with I34T, P104H, K105R
VL: B1 VL with R28S, S31N, S32T, A51V, S91K, R92V, P96S
notes: Full length IgG converted from scFv clone J703M1S3#2; Heavy chain plasmid is pHybE-hCg1,z,non-a,mut(234,235), i.e. human IgG1 with mutations at 234 and 235; Light chain plasmid is pHybE-hCk, i.e. human kappa; also called J703M1S3#2
B6: AE11-5 AM6 (antibody, V domains shown)
VH: B1 VH with P58A, I59T, V100I
VL: B1 VL with R28T, V55I, S91T, R92S, S94L, P96T
notes: Full length IgG converted from scFv clone J703M1S3#35; Human IgG1 (hCg1,z,non-a,mut(234,235)) with human kappa; also called J703M1S3#35
B7: AE11-5 AM10 (antibody, V domains shown)
VH: B1 VH with P104Y
VL: B1 VL with R28S, S32N, V55I, S91T, S93T, P97L
notes: Full length IgG converted from scFv clone J703M1S3#90; Human IgG1 (hCg1,z,non-a,mut(234,235)) with human kappa; also called J703M1S3#90
B8: AE11-5 AM8 (antibody, V domains shown)
VH: B1 VH with S57T, P104F
VL: B1 VL with R28T, V55I, R92S
notes: Full length IgG converted from scFv clone J703M1S3#38; Human IgG1 (hCg1,z,non-a,mut(234,235)) with human kappa; also called J703M1S3#38
B9: AE11-5 AM3 (antibody, V domains shown)
VH: B1 VH with S57T, P58A, I59N
VL: B1 VL with R28S, S32R, V55T, R92G, P97R
notes: Full length IgG converted from scFv clone J703M1S3#26; Human IgG1 (hCg1,z,non-a,mut(234,235)) with human kappa; also called J703M1S3#26
B10: hMAK195-AM14 (antibody, V domains shown)
VH: EVQLVESGGGLVQPGGSLRLSCAASGFTFSNYGVSWVRQAPGKGLEWVSMIWADGSTHYASSLKGRFTISRDNSKNTLYLQMNSLRAEDTAVYYCAREWQHGPVAYWGQGTLVTVSS
VL: DIQMTQSPSSLSASVGDRVTITCKASQAVSSAVAWYQQKPGKAPKLLIYWASTRHTGVPSRFSGSGSGTDFTLTISSLQPEDFATYYCQQHYSTPFTFGQGTKLEIKR
notes: Full-length IgG; also called rHC3; hMAK195 rHC3
B11: hMAK195-AM25 (antibody, V domains shown)
VH: B10 VH with S35T, L63V
VL: B10 VL with K24R, A28L, R54L, S93R
notes: Full-length IgG; also called S4-24; hMAK195 S4-24
B12: hMAK195-AM17 (antibody, V domains shown)
VH: B10 VH with S35T, H58D, S61D, S62T, L63V
VL: B10 VL
notes: Full-length IgG; also called rHC22; hMAK195 rHC22
B13: hMAK195-AM16 (antibody, V domains shown)
VH: B10 VH with S35T, L63V, V104A
VL: B10 VL
notes: Full-length IgG; also called rHC19; hMAK195 rHC19
B14: hMAK199-AM1 (antibody, V domains shown)
VH: EVQLVQSGAEVKKPGASVKVSCKASGYTFANYGIIWVRQAPGQGLEWMGWINTYTGKPTYAQKFQGRVTMTTDTSTSTAYMELSSLRSEDTAVYYCARKLFTTMDVTDNAMDYWGQGTTVTVSS
VL: DIQMTQSPSSLSASVGDRVTITCRASQDISQYLNWYQQKPGKAPKLLIYYTSRLQSGVPSRFSGSGSGTDFTLTISSLQPEDFATYFCQQGNTWPPTFGQGTKLEIK
notes: scFv clone J662M2S3#10 converted to full length IgG; HC plasmid pHybE-hCg1,z,non-a V2 (human IgG1), LC plasmid pHybE-hCk V3 (human kappa); also called J662M2S3#10
B15: hMAK199-AM8 (antibody, V domains shown)
VH: B14 VH
VL: B14 VL
notes: scFv clone J662M2S3#45 converted to full length IgG; HC plasmid pHybE-hCg1,z,non-a V2 (human IgG1), LC plasmid pHybE-hCk V3 (human kappa); also called J662M2S3#45

target: T1, human TNF-α (human, UniProt P01375 77-233, biotin label in the ELISA (site not stated); unlabelled in the L929 bioassay); test: cell-based or functional assay
T1 sequence (P01375 77-233 R107D limits assumed): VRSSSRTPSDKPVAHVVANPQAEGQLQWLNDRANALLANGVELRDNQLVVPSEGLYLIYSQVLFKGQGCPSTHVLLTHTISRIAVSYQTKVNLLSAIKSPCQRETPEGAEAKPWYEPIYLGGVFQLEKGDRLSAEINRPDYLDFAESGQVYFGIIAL

Row | hu TNF neutralization IC50 | Binder
1 | 0.259 nM | B1
2 | 1.24 nM | B2
3 | 0.968 nM | B3
4 | 0.391 nM | B4
5 | 0.439 nM | B5
6 | 2.03 nM | B6
7 | 0.678 nM | B7
8 | 1.36 nM | B8
9 | 0.291 nM | B9

target: Rhesus/Macaque TNF (Rhesus/Macaque, UniProt P48094 77-233); test: cell-based or functional assay
Target sequence in this assay (P48094 77-233 limits assumed): as the sequence (P01375 77-233 R107D limits assumed) above, with D31R, R44T, T72N, R138L counted along it

Row | rhesus TNF neutralization IC50 | Binder
10 | 0.109 nM | B1
11 | 0.756 nM | B2
12 | 0.613 nM | B3
13 | 0.123 nM | B4
14 | 0.251 nM | B5
15 | 0.652 nM | B6
16 | 0.14 nM | B7
17 | 3.04 nM | B8
18 | 0.165 nM | B9

target: T2, human TNF-α (human, UniProt P01375 77-233); test: cell-based or functional assay
T2 sequence (P01375 77-233 R107D limits assumed): as the sequence (P01375 77-233 R107D limits assumed) above

Row | hu TNF neutralization IC50 (L929 bioassay) | Binder
19 | 0.0401 nM | B10
20 | 0.0114 nM | B11
21 | 0.0031 nM | B12
22 | 0.0105 nM | B13

target: Rhesus/Macaque TNF (rhesus/macaque, UniProt P48094 77-233); test: cell-based or functional assay
Sequence (P48094 77-233 limits assumed): as the sequence (P01375 77-233 R107D limits assumed) above, with D31R, R44T, T72N, R138L counted along it

Row | rhesus TNF neutralization IC50 (L929 bioassay) | Binder
23 | 4.61 nM | B10
24 | 0.262 nM | B11
25 | > 25 nM | B12
26 | 0.803 nM | B13

target: T3, human TNF-α (human, UniProt P01375 77-233); test: cell-based or functional assay
T3 sequence (P01375 77-233 R107D limits assumed): as the sequence (P01375 77-233 R107D limits assumed) above

Row | hu TNF neutralization IC50 | Binder
27 | 0.054 nM | B14
28 | 0.247 nM | B15

target: Rhesus/Macaque TNF (Rhesus/Macaque, UniProt P48094 77-233); test: cell-based or functional assay; remark: another data set of the same source
Target sequence in this assay (P48094 77-233 limits assumed): as the sequence (P01375 77-233 R107D limits assumed) above, with D31R, R44T, T72N, R138L counted along it

Row | rhesus TNF neutralization IC50 | Binder
29 | 0.012 nM | B14
30 | 0.204 nM | B15

target: T3, human TNF-α; test: hTNFa ELISA; IgG captured on anti-human IgG-Fc, biotinylated human TNF titrated

Row | EC50 | Binder
31 | 0.016 nM | B14
32 | 0.219 nM | B15

target: T2, human TNF-α; test: ELISA: IgG captured on goat anti-human IgG-Fc, biotin-human TNF titrated, streptavidin-HRP

Row | EC50 | Binder
33 | 0.051 nM | B10
34 | 0.052 nM | B11
35 | 0.056 nM | B12
36 | 0.056 nM | B13

target: T4, cynomolgus monkey TNF (cynomolgus monkey, UniProt P79337 77-233, limits assumed, biotin label in the ELISA (site not stated)); test: ELISA; IgG captured on goat anti-human IgG-Fc, serially diluted biotinylated cyno TNF, streptavidin-HRP
T4 construct: also called cynoTNF; cyno TNF
T4 sequence (P79337 77-233 limits assumed): as the sequence (P01375 77-233 R107D limits assumed) above, with D31R, L37V, R44T, T72N, R138L counted along it
Description: (§1) The following protocol is used to characterize the binding of TNF antibodies to biotinylated human or cyno TNF by enzyme-linked immunosorbent assay (ELISA). An ELISA plate was coated with 50 μl per well of goat anti human IgG-Fc at 2 μg/ml, overnight at 4° C. The plate was washed 3 times with PBS/Tween. 50 μl Mab diluted to 1 μg/ml in PBS/0.1% BSA was added to appropriate wells and incubated for 1 hour at room temperature (RT). The plate was washed 3 times with PBS/Tween. 50 μl of serial diluted biotin-human TNF was added to appropriate wells and incubated for 1 hour at RT. The plate was washed 3 times with PBS/Tween. 50 μl of streptavidin-HRP diluted 1:10,000 in PBS/0.1% BSA was added to appropriate wells and incubated for 1 hour at RT. The plate was washed 3 times with PBS/Tween. 50 μl of TMB was added to appropriate wells and the reaction was allowed to proceed for 1 minute. The reaction was stopped with 50 μl/well 2N H₂SO₄ and the absorbance read at 450 nm.

Row | EC50 | Binder
37 | 750 nM | B1
38 | 2.2 nM | B3
39 | 5.29 nM | B4
40 | 2.14 nM | B5
41 | 0.28 nM | B7
42 | 58.6 nM | B8
43 | 1.55 nM | B9

target: T1, human TNF-α; test: ELISA; IgG captured on goat anti-human IgG-Fc, serially diluted biotinylated human TNF, streptavidin-HRP
Description: as §1

Row | EC50 | Binder
44 | 18.3 nM | B1
45 | 522 nM | B2
46 | 17.7 nM | B3
47 | 16.7 nM | B4
48 | 1.06 nM | B5
49 | 1.37 nM | B6
50 | 0.98 nM | B7
51 | 250 nM | B8
52 | 1.57 nM | B9
